Reference: patent US20240400670A1 (JIANGSU HENGRUI PHARMACEUTICALS, published 2024)

Tests used:
[1] = target: T1, human APRIL (R&D Systems, 5860-AP-010/CF) (human, UniProt O75888 105-250, limits assumed); experiment: cell-based or functional assay
T1 sequence (looked up): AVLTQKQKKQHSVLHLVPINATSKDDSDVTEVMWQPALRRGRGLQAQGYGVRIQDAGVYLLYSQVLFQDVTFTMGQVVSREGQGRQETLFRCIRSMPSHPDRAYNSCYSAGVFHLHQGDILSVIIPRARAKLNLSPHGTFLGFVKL

[2] = target: BAFF (R&D Systems, 7537-BF); experiment: cell-based or functional assay
[3] = target: T2, human BAFF (ACROBiosystems, BAF-H52D4) (human, UniProt Q9Y275 134-285); experiment: ELISA, sample coated, BAFF titrated, anti-His-HRP
T2 construct: detected with anti-His-HRP
Description: (§1) The specific procedures are as follows:
The test sample was diluted to 2 μg/mL with a PBS (BasalMedia, B320) buffer at pH 7.4 and added to a 96-well microplate (Coming, 3590) at 100 μL/well. The plate was incubated at 4° C. overnight. After the liquid was discarded, 5 % skim milk (BD, 232100) diluted with PBS was added at 300 μL/well for blocking, and the mixture was incubated at 37° C. for 2 h. After the blocking was completed, the blocking solution was discarded, and the plate was washed 3 times with a PBST buffer (pH 7.4, PBS containing 0.1 % tween-20). […] After the incubation, the plate was washed 3 times with PBST. […] After the plate was washed 3 times with PBST, a TMB chromogenic substrate (KPL, 5120-0077) was added at 100 μL/well, and the mixture was incubated at room temperature for 10⁻¹⁵ min, and then 1 M H₂SO₄ was added at 50 μL/well to terminate the reaction. The absorbance values at 450 nm were taken using a microplate reader. The binding curves of antibodies to antigens were fitted using software, and the EC₅₀ values were calculated.

[4] = target: T3, human BAFF (Sino Biological, 10056-HNCH) (human, UniProt Q9Y275 134-285); experiment: SPR (Biacore), Protein A capture of sample, 1:1 model
T3 construct: also called BAFF protein
Description: (§2) A certain amount of test sample was subjected to affinity capture by a biosensor chip Protein A (GE, 29127556), and then antigens at a series of concentration gradients were allowed to flow on the surface of the chip. The reaction signals were detected in real time by using Biacore (GE, 8 K) to obtain association and dissociation curves. After the dissociation was completed for each cycle, the biochip was washed and regenerated with a 10 mM glycine-hydrochloric acid solution at pH 1.5 (GE, BR-1003-54). Fitting was performed based on the experimental data using BlAevaluation version 4.1 software with a 1:1 model, and affinity values were obtained.

[5] = target: cynomolgus monkey BAFF (Kactus, BAF-CM412) (cynomolgus monkey, UniProt A0A2K5V2X4 134-285); experiment: as above
Description: as §2

[6] = target: mouse BAFF (Acro Biosystems, BAF-M521y) (mouse, UniProt Q9WU72 127-309, limits assumed); experiment: as above
Description: as §2

[7] = target: T1, human APRIL (R&D Systems, …); experiment: as above
Description: as §2

[8] = target: T3, human BAFF (Sino Biological, 10056-HNCH); experiment: competition ELISA, blocks BAFF/BCMA; BCMA coated, biotin-BAFF
Description: as §1
(§3) The receptor protein was diluted to 2 μg/mL with a PBS (BasalMedia, B320) buffer at pH 7.4 and added to a 96-well microplate (Corning, 3590) at 100 μL/well. The plate was incubated at 4° C. overnight. After the liquid was discarded, 1 % Casein blocking solution (Thermo, 37528) was added at 200 μL/well for blocking, and the plate was incubated at 37° C. for 2 h. After the blocking was complete, the blocking solution was discarded, and the plate was washed 3 times with a PBST buffer (pH 7.4 PBS containing 0.1 % tween-20) for later use. After the biotin-labeled ligand protein at a fixed concentration was mixed with an antibody or fusion protein diluted in a gradient, the mixture was pre-incubated at 37° C. for 30 min and then added to the blocked microplate. The plate was incubated at 37° C. for 1.5 h. After the incubation was complete, the plate was washed 3 times with PBST. Streptavidin-HRP (Invitrogen, 434323, diluted at 1:4000) was added at 100 μL/well, and the plate was incubated at 37° C. for 1 h. The supernatant was removed. […] The absorbance values at 450 nm were taken using a microplate reader. Curves for the inhibition of binding of the ligands to the receptors were fitted using software, and the IC₅₀ values were calculated.

[9] = target: T3, human BAFF (Sino Biological, 10056-HNCH); experiment: competition ELISA, blocks BAFF/TACI; TACI coated, biotin-BAFF
Description: as §1, §3

[10] = target: T1, human APRIL (R&D Systems, …); experiment: competition ELISA, blocks APRIL/BCMA; BCMA coated, biotin-APRIL
Description: as §1, §3

[11] = target: T1, human APRIL (R&D Systems, …); experiment: competition ELISA, blocks APRIL/TACI; TACI coated, biotin-APRIL
Description: as §1, §3

[12] = target: T3, human BAFF (Sino Biological, 10056-HNCH); experiment: competition ELISA, blocks BAFF/BAFF-R; BAFF-R coated, biotin-BAFF
Description: as §1, §3

B1: RCT-18 (Fc fusion)
chain: SRVDQEERFPQGLWTGVAMRSCPEEQYWDPLLGTCMSCKTICNHQSQRTCAAFCRSLSCRKEQGKFYDHLLRDCISCASICGQHPKQCAYFCENKLRSPVNLPPELDKTHTCPPCPAPEAEGAPSVFLFPPKPKDTLMISRTPEVTCVVVDVSHEDPEVKFNWYVDGVEVHNAKTKPREEQYNSTYRVVSVLTVLHQDWLNGKEYKCKVSNKALPSSIEKTISKAKGQPREPQVYTLPPSRDELTKNQVSLTCLVKGFYPSDIAVEWESNGQPENNYKTTPPVLDSDGSFFLYSKLTVDKSRWQQGNVFSCSVMHEALHNHYTQKSLSLSPGK
notes: control TACI-Fc; also called telitacicept; RC18
In the case of B1, the “Activity in inhibiting proliferation of B cells (IC50, pM), APRIL” value [1] is reported as 1990 pM, the “Activity in inhibiting proliferation of B cells (IC50, pM), BAFF” value [2] is reported as 70.1 pM and the EC50 [3] is reported as 21.5 nM. For the same binder, the Kd [4] was 0.186 nM, the koff [4] was 0.00018 s⁻¹ and the kon [4] was 964000 M⁻¹ s⁻¹. It also gave a Kd [5] of 0.258 nM, a koff [5] of 9.54e-05 s⁻¹ and a kon [5] of 370000 M⁻¹ s⁻¹. It also gave a Kd [6] of 0.121 nM, a koff [6] of 8.98e-05 s⁻¹ and a kon [6] of 740000 M⁻¹ s⁻¹. It also gave a Kd [7] of 0.0439 nM, a koff [7] of 0.00753 s⁻¹ and a kon [7] of 1.72e+08 M⁻¹ s⁻¹. The IC50 [8] was 4.86 nM, the IC50 [9] was 6.07 nM and the IC50 [10] was 484 nM. It also gave an IC50 [11] of 64.9 nM and an IC50 [12] of 7.57 nM.
